Usually stoichiometry N stands for a count of units in the complex or per binding partner.

The results in this text go back to article PMC10665427, “The heat shock protein LarA activates the Lon protease in response to proteotoxic stress” (Nature Communications, 2023).

Data set [1] addresses Lon-His (C. crescentus) (UniProt B8GX12).
In data set [2] the target is Lon^EQ (Lon E420Q, Walker-B mutant) (C. crescentus) (UniProt B8GX12). Kind of data set: native MS; purified proteins buffer exchanged into 200 mM ammonium acetate pH 8.0, mixed in equimolar ratios (LarA also in 3-fold excess); nano ESI, Waters Synapt G2, source temperature 30 °C.
For data set [3], the target named is Lon-His (C. crescentus) (UniProt B8GX12). The source holds these as a separate data set.
Data set [4] concerns the molecule itself. Kind of data set: native MS; purified proteins buffer exchanged into 200 mM ammonium acetate pH 8.0, mixed in equimolar ratios (LarA also in 3-fold excess); nano ESI, Waters Synapt G2, source temperature 30 °C.

For the molecule LarA, purified (natural protein), the rate of Lon-mediated His-SciP degradation against LarA concentration (0 to 15 µM), highest at 2 µM LarA, compared with reactions lacking LarA with Lon-His (C. crescentus) [1] was determined as 5.5 fold. Also, the stoichiometry N (LarA molecules per Lon^EQ hexamer) in data set [2] is 6. For the molecule 6xHis-tagged SciP (natural protein), in the data set with Lon-His (C. crescentus) [3], the Km of Lon-mediated His-SciP degradation in vitro, in the presence of 2 µM LarA (0.05 µM Lon-His hexamer) is 1.8 µM and the Km of Lon-mediated His-SciP degradation in vitro, without LarA (0.05 µM Lon-His hexamer) was 9.3 µM.

B1: Lon^EQ (Lon E420Q, Walker-B mutant) (enzyme, C. crescentus, UniProt B8GX12 1-799, looked up)
chain: MSELRTLPVLPLRDIVVFPHMVVPLFVGRDKSVRALEEVMRGDKQILLVTQKNSADDDPAPGDIFEVGVLATVLQLLKLPDGTVKVLVEGKARAAVVSFTDQESYYEAQIGEVSEDDGAGPEAEALSRAVVEQFENYVKLNKKVPPEALASIPQIAEPGKLADSIAAHLSVKIGDKQNLLEIFDVVKRLEKVFALMEGEISVLQVEKKIRSRVKRQMEKTQREYYLNEQMKAIQRELGDPDDARDELIDLEKRIKKTKLSKEARTKAESELKKLRNMSPMSAESTVVRNYLDWLLSIPWGKAKTKKIDLVESEGILDADHYGLEKVKERILEYLAVQARTNSLKGPILCLVGPPGVGKTSLGKSIAKATGREFVRMSLGGVRDEAEIRGHRRTYIGSMPGKVVQSMKKAKTTNAFVLLDQIDKMGSDYRGDPASALLEVLDPSQNSTFGDHYLEVDYDLSQVMFVTTANSLNMPQPLLDRMEIIRIPGYTEDEKLEIAKRHILPKLAKDHGLKPAEFIVPDKAIRDLIRYYTREAGVRSLERELGALARKTVRDLAREKVASITIDDERLAKYAGVKKYRYGETDEVDQVGIVTGLAWTEFGGDILTIEAVKMPGKGRMQITGNLKDVMKESIAAANSYVRSRALQFGIKPPVFEKTDVHIHVPDGATPKDGPSAGIAMALAMVSVLTGIPIRKDIAMTGEITLRGRVTAIGGLKEKLLAALRSGVKTVLIPQENEKDLADVPQTVKDGLEIIPVSTVDEVLKHALTGPLTPVEWNEAEEPITTSAKKDDGDSDAMLTH
notes: predicted molecular weight of the hexamer 529,458 Da; Deficient in ATP hydrolysis; source: E. coli BL21-SI/pCodonPlus, purified (Talon, Ulp1 cleavage, anion exchange)
On to B1, for which the “stoichiometry N” value in data set [4] was determined as 6.
